Data taken from PMC5707411 (Nature Communications, 2017).

Legend:
[1] = biological target: T1, full-length RSV F (TM, residues 1–574) from strain A2 with the DS-Cav1 prefusion-stabilizing mutations (Human respiratory syncytial virus A, …, UniProt P03420, stabilised); experiment: flow cytometry on cells; Expi293 cells 48 h after transfection with full-length DS-Cav1 RSV F variants, stained with IgG 1 h at 4 °C (D25 Alexa Fluor 488-conjugated; 5C4 detected with FITC goat anti-mouse), fixed; fractional binding relative to motavizumab; details: one partner purified
T1 construct: signal peptide in the construct; In cells F0 is cut by furin-like proteases into F2 and F1 (pep27 removed) and forms trimers; also called RSV A2 pre-F; wild-type A2; source: Expi293, transiently transfected (pVRC8400), on the cell surface

[2] = biological target: full-length RSV F (TM, residues 1–574) from strain A2 with the DS-Cav1 prefusion-stabilizing mutations (Human respiratory syncytial virus A, …, UniProt P03420, stabilised); experiment: cell-based or functional assay
[3] = biological target: T2, RSV F (+) FdTHS based on strain A2 (wild-type A2 RSV F ectodomain fused to a C-terminal trimerization motif) (Human respiratory syncytial virus A, …, fully glycosylated (N-linked) | fully glycosylated (N-linked)); experiment: crystal structure; 5C4 Fab co-expressed with RSV F (+) FdTHS in Expi293, complex purified (Ni-NTA, Strep-Tactin, thrombin, Superose 6); crystal from 0.2 M ammonium acetate, 0.1 M Bis-Tris pH 6.5, 25% PEG 3350; 3.4 Å; details: both partners purified
T2 construct: F2 subunit (N-terminal fragment of F0 made by furin-like proteases) of the respiratory syncytial virus fusion glycoprotein, strain A2; ectodomain part of the F1 subunit (C-terminal fragment of F0 made by furin-like proteases) of the respiratory syncytial virus fusion glycoprotein, strain A2; Trimer of F2-F1 heterodimers; pep27 is removed by furin-like proteases; also called pre-F; F glycoprotein; …

[4] = biological target: T3, StrepTagII and 6xHis-tagged RSV pre-F (DS-Cav1) in the 9320 RSV F background (Human respiratory syncytial virus B, …, UniProt Q6V2E7, stabilised); experiment: SPR; 6xHis-tagged pre-F (DS-Cav1) captured on an NTA sensor chip to ~150 RU, Biacore X100; Fab injected in 3-fold dilutions (5C4:pre-F 9320, 0.460–3000 nM); double-reference subtracted, 1:1 binding model; details: both partners purified
T3 construct: respiratory syncytial virus fusion glycoprotein, subtype B strain 9320, stabilised in the prefusion conformation by the DS-Cav1 mutations; also called pre-F 9320; pre-F derived from subtype B strain 9320; source: Freestyle 293-F, transfected, expressed with kifunensine (5 µM); purified from supernatant (Strep-Tactin)

B1: D25 IgG (antibody, V domains shown)
VH: QVQLVQSGAEVKKPGSSVMVSCQASGGPLRNYIINWLRQAPGQGPEWMGGIIPVLGTVHYAPKFQGRVTITADESTDTAYIHLISLRSEDTAMYYCATETALVVSTTYLPHYFDNWGQGTLVTVSS
VL: DIQMTQSPSSLSAAVGDRVTITCQASQDIVNYLNWYQQKPGKAPKLLIYVASNLETGVPSRFSGSGSGTDFSLTISSLQPEDVATYYCQQYDNLPLTFGGGTKVEIK
notes: D25 heavy chain (human antibody); the variable domain and CH1 are in the D25 Fab of the cited entry PDB 4JHW; rest of the IgG heavy chain not described; D25 light chain (human antibody); in the D25 Fab of the cited entry PDB 4JHW; also called mAb D25; Alexa Fluor 488-conjugated D25 IgG; copies: 2 + 2
- binding result [1]: binds

B2: 5C4 IgG (antibody, V domains shown)
VH: EVQLQQSGAELVKPGASVKLSCTASGFNIKDTFFHWVKQRPEQGLEWIGRIDPADGHTKYDPKFQGKATITADTSSNTAFLQLSSLTSVDTAVYYCATTITAVVPTPYNAMDYWGQGTSVTVSS
VL: DIVLTQSPASLAVSLGQRTTISCRASESVDSFDNSFIHWYQQKPGQPPKLLIFLASSLESGVPARFSGSGSRTDFTLTIDPVEADDAATYYCQQSNEDPFTFGSGTKLEIK
- EC50 of 5C4 neutralisation of mKate-RSV A2 wild-type virus on HEp-2 cells (viral F without DS-Cav1; antibody format not given) [2]: 4 ng/mL

B3: 5C4 Fab (Fab, V domains shown)
VH: EVQLQQSGAELVKPGASVKLSCTASGFNIKDTFFHWVKQRPEQGLEWIGRIDPADGHTKYDPKFQGKATITADTSSNTAFLQLSSLTSVDTAVYYCATTITAVVPTPYNAMDYWGQGTSVTVSS
VL: DIVLTQSPASLAVSLGQRTTISCRASESVDSFDNSFIHWYQQKPGQPPKLLIFLASSLESGVPARFSGSGSRTDFTLTIDPVEADDAATYYCQQSNEDPFTFGSGTKLEIK
notes: 5C4 Fab heavy chain (antibody elicited in mice); 5C4 Fab light chain (murine kappa, Vk3-10); source: Expi293, transiently co-transfected heavy and light chain plasmids; purified from supernatant (CaptureSelect LC-kappa (murine)); for the complex co-expressed with RSV F
- stoichiometry N [3]: 3
- binding result [4]: binds
